Results published in PMC7294096.
Where “and” joins values, the source holds several entries; their conditions need not be identical. Identical values can stand only once.

Molecular target: DnaJ heat shock protein family (Hsp40) member B6 (DNAJB6), wild type (human) (UniProt O75190)
Experiment: native MS; 37 μM DNAJB6 (plain or BS3-crosslinked) with 1 μM Aβ(1–40), 10 mM ammonium acetate pH 7; direct detection of DNAJB6 signals and complexes

DnaJ heat shock protein family (Hsp40) member B6 (DNAJB6), wild type, O75190-2 1-241 (natural protein; other documents disagree on this pair), sequence (O75190 other isoform, or with tags, fused parts or gaps): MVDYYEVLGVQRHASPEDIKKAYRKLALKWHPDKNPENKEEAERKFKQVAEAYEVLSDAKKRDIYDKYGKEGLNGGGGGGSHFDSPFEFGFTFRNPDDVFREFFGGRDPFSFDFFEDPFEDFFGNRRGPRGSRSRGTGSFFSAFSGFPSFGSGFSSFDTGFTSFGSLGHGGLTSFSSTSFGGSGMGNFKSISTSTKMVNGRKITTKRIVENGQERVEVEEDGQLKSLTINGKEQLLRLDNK

## DnaJ heat shock protein family (Hsp40) member B6 (DNAJB6), wild type, O75190-2 1-241 (natural protein; other documents disagree on this pair)
  stoichiometry N: 2 and 3
